Targets include FKBP-hRL (112-311) (UniProt P62942); hRL (112-311)-FKBP (UniProt P27652); hRL (92-311)-FKBP (UniProt P27652); FKBP-hRL (92-311) (UniProt P62942).
Experiment in all cases: cell-based or functional assay

Chain of FKBP-hRL (112-311) (P62942 other isoform, or with tags, fused parts or gaps): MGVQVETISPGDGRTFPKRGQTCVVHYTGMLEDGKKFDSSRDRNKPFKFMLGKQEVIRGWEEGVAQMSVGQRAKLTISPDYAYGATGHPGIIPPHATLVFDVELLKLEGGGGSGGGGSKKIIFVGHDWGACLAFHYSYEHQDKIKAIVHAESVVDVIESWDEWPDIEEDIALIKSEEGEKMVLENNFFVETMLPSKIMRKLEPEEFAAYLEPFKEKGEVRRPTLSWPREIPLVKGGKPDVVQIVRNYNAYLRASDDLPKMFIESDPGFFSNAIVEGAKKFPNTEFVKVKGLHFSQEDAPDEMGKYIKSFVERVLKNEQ
Chain of hRL (112-311)-FKBP (P27652 other isoform, or with tags, fused parts or gaps): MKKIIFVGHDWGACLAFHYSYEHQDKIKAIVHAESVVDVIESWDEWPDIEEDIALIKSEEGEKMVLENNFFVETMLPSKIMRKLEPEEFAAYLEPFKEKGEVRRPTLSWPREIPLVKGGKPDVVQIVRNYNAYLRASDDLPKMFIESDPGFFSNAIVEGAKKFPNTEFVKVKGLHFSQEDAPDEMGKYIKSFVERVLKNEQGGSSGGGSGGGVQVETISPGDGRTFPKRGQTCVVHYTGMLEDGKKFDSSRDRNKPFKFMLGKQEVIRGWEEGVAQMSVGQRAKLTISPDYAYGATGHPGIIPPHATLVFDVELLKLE
Chain of FKBP-hRL (92-311) (P62942 other isoform, or with tags, fused parts or gaps): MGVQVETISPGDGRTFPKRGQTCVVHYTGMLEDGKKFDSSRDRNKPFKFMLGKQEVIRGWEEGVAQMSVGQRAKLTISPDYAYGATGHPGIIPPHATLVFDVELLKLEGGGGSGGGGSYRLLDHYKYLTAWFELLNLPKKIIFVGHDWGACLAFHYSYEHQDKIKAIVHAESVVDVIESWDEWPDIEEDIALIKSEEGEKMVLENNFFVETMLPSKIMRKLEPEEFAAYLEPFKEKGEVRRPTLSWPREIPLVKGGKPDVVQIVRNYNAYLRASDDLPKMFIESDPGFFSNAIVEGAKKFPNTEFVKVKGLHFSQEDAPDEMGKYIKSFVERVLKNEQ
Chain of hRL (92-311)-FKBP (P27652 other isoform, or with tags, fused parts or gaps): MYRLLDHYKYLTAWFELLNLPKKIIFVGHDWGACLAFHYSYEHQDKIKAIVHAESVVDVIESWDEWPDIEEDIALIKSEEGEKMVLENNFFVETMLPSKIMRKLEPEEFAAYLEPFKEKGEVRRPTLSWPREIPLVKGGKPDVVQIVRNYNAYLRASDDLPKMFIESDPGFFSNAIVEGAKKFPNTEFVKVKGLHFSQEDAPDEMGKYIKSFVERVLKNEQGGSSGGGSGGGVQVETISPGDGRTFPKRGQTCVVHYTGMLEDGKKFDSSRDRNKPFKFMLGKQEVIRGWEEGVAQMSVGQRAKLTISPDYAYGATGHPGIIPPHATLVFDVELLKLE
Chain of hRL (1-111)-FRB (P27652 other isoform, or with tags, fused parts or gaps): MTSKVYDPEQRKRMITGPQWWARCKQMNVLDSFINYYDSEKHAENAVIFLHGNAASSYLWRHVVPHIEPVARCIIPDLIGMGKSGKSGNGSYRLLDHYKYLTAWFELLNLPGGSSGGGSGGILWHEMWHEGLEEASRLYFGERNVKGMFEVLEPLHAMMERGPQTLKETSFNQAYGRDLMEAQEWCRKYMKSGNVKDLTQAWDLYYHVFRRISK
Chain of hRL (1-91)-FRB (P27652 other isoform, or with tags, fused parts or gaps): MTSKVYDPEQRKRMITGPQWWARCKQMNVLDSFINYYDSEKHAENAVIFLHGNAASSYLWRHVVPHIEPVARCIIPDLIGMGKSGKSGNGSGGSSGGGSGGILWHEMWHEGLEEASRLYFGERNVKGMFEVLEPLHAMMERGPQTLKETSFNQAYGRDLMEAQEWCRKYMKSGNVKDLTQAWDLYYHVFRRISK

As to “FRB-hRL (1-111) (from UniProt P42345 2021-2113; P27652 1-111)”, the Renilla luciferase activity (PCA, TnT lysate) (fold (+rapamycin against no rapamycin)) turned out to be 5.3 in the test with FKBP-hRL (112-311) and 46 with hRL (112-311)-FKBP.

As for “FRB-hRL (1-91) (from UniProt P42345 2021-2113; P27652 1-91)”, in the test with hRL (92-311)-FKBP, the Renilla luciferase activity (PCA, TnT lysate) (fold (+rapamycin against no rapamycin)) was found to be 134.

As for “hRL (1-111)-FRB (from UniProt P27652 1-111; P42345 2021-2113)”, the Renilla luciferase activity (PCA, TnT lysate) (fold (+rapamycin against no rapamycin)) in the test with FKBP-hRL (112-311) is 81.

Turning to “hRL (1-91)-FRB (from UniProt P27652 1-91; P42345 2021-2113)”, in the test with FKBP-hRL (92-311), the Renilla luciferase activity (PCA, TnT lysate) (fold (+rapamycin against no rapamycin)) is 8.6.

These data come from patent US20100273186A1, “SPLIT MUTANT HYDROLASE FUSION REPORTER AND USES THEREOF” (Promega Corporation, priority 2007, published 2010).
